From patent US20090011974A1, “Scavenger Receptor B1 (Cla-1) Targeting for the Treatment of Infection, Sepsis and Inflammation” (priority 2002, published 2009)
Values joined by “and” are separate entries in the source; they are usually repeats but may differ in a detail not shown here. Identical values can stand only once. “Also recorded” adds a separate entry of the source. Where a SMILES comes first, the peptide text is derived from it.

How the values were obtained:
THP-1 cells = conditions: 20 μg/ml
Description: Assays for cytokines and lactate dehydrogenase (LD). Interleukins 6 and 8 (IL-6 and IL-8) and tumor-necrosis factor-α (TNF-α) are measured in culture supernatants of THP-1 cells using commercial ELISA kits (Biosource International, USA). LD activity was measured in the supernatants by a Hitachi 917 automated chemistry analyzer (Roche).

CLA-1 [1] = biological target: T1, CLA-1 (Homo sapiens, UniProt Q8WTV0); test: FACS analysis of Alexa 488-SAA and Alexa 488-HDL uptake in HeLa cells; format: cell-based; conditions: CLA-1 overexpressing HeLa cells
T1 construct: using the expression plasmid pTRE2 (Clontech, Pal Alto, Calif.), encoding a CLA-1 protein (pTRE2-CLA-1); expressed in transfected cells; host or cells: HeLa (Tet-off) cells (Clontech), stably co-transfected with pTRE2-CLA-1 and pTK-Hyg and selected with hygromycin
T1 sequence (Q8WTV0 1-509 isoform Q8WTV0-2): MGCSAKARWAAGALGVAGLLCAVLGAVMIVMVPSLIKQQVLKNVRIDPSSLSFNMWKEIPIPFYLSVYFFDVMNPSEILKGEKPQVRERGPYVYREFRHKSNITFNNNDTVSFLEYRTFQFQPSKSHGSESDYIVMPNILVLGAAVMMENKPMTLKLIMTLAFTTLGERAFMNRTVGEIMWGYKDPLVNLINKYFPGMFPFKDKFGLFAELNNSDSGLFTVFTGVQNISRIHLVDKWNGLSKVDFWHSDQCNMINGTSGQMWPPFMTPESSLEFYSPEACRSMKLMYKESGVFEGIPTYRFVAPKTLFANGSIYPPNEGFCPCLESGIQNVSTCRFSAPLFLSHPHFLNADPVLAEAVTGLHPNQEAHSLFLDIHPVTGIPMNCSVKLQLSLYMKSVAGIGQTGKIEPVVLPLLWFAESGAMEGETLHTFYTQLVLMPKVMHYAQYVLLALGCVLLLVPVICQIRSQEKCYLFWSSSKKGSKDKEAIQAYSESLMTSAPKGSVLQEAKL
Description: Ligand-uptake experiments. Binding experiments are performed at 37° C. using concentrations between 1.25 and 30 μg/ml. All incubations are performed in DMEM containing 2 mg/ml BSA. After a 2-hr-incubation […], the cells are rinsed with ice-cold PBS and released by a 30-min incubation in EDTA containing Cell stripper (CellGro, USA). Cells are resuspended and added to an equal volume of 4% paraformaldehyde in PBS. Cell fluorescence is analyzed by FACS analyses.

CLA-1 [2] = biological target: T1, CLA-1; test: Competition for Alexa 488-SAA uptake in CLA-1 overexpressing and mock transfected HeLa cells (FACS); format: binding; conditions: mock transfected and CLA-1 overexpressing HeLa cells
Description: Competition experiments. Cells are cultured for 24 hr in serum free DMEM before experiments. […] For KKB-1 anti-CLA-1 blocking experiments, cells are pre-incubated with KKB-1 rabbit anti-serum (non-immune rabbit serum as a negative control) at a dilution of 1:10 followed by ligand addition to a final concentration of 5 μg/ml and a 1-hour incubation. Cell fluorescence was analyzed by FACS analyses.

[3] = biological target: T2, CLA-1 (CD36 and LIMPII Analogous-1), human scavenger receptor class B type I (human, UniProt Q8WTV0 1-552); test: flow cytometry of Alexa-488 SAA uptake
T2 construct: whole, on cells; Target is CLA-1 on stably transfected HeLa cells, compared with mock-transfected HeLa cells, which carry a low endogenous level of CLA-1; also called SR-BI/CLA-1; human SR-BI
T2 sequence (looked up): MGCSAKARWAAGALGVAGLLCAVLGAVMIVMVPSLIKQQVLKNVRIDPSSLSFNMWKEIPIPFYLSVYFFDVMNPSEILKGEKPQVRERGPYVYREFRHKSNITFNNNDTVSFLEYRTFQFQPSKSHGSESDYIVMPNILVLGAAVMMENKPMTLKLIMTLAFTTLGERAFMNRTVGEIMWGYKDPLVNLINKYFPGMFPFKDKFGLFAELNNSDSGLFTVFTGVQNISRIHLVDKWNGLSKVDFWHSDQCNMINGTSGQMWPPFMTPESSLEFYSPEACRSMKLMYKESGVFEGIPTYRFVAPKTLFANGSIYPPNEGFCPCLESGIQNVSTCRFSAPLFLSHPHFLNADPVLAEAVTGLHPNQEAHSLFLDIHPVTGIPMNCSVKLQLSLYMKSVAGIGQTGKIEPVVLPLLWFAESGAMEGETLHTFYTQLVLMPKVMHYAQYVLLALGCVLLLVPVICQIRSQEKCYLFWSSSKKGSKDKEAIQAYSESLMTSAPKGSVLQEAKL

| Molecule | toxic effect (LDH release, β-actin expression) (THP-1 cells) | concentration at which SAA uptake plateaus (CLA-1 [1]) | competition with Alexa 488-SAA for CLA-1 (CLA-1 [2]) | fold increase of uptake over mock transfected HeLa cells [3] [fold] |
| --- | --- | --- | --- | --- |
| CC(C)C[C@H](NC(=O)[C@H](Cc1c[nH]c2ccccc12)NC(=O)[C@H](CC(=O)O)NC(=O)[C@@H]1CCCN1C(=O)[C@H](Cc1ccccc1)NC(=O)[C@H](C)NC(=O)[C@H](CCC(=O)O)NC(=O)[C@H](CCCCN)NC(=O)[C@H](CC(C)C)NC(=O)[C@H](CCCCN)NC(=O)[C@H](CCC(=O)O)NC(=O)[C@H](C)NC(=O)[C@@H](NC(=O)[C@H](CCCCN)NC(=O)[C@H](CC(=O)O)NC(=O)[C@H](Cc1ccc(O)cc1)NC(=O)[C@H](Cc1ccccc1)NC(=O)[C@H](C)NC(=O)[C@H](CCCCN)NC(=O)[C@H](CC(C)C)NC(=O)[C@H](Cc1c[nH]c2ccccc12)NC(=O)[C@@H](N)CC(=O)O)C(C)C)C(=O)N[C@@H](CCCCN)C(=O)N[C@@H](C)C(=O)N[C@@H](Cc1ccccc1)C(=O)N[C@@H](Cc1ccc(O)cc1)C(=O)N[C@@H](CC(=O)O)C(=O)N[C@@H](CCCCN)C(=O)N[C@H](C(=O)N[C@@H](C)C(=O)N[C@@H](CCC(=O)O)C(=O)N[C@@H](CCCCN)C(=O)N[C@@H](CC(C)C)C(=O)N[C@@H](CCCCN)C(=O)N[C@@H](CCC(=O)O)C(=O)N[C@@H](C)C(=O)N[C@@H](Cc1ccccc1)C(=O)O)C(C)C [Peptide L-37PA] (H-DWLKAFYDKVAEKLKEAFPDWLKAFYDKVAEKLKEAF-OH; N-terminus and C-terminus assumed) | no apparent toxic effect |  |  |  |
| Serum Amyloid A1 (StressGene) (ligand, UniProt P0DJI8 19-122, looked up, also called SAA; lipid-free SAA) RSFFSFLGEAFDGARDMWRAYSDMREANYIGSDKYFHARGNYDAAKRGPGGAWAAEVITDARENIQRFFGHGAEDSLADQAANEWGRSGKDPNHFRPAGLPEKY |  | 2.5 µg/mL and 2.5 to 5 µg/mL | efficient competitor; also recorded: competed for CLA-1 binding with Alexa 488-SAA | > 5 |
